Data from paper PMC11852808.

Details: acetylation at K3

In the case of protein VII: K3Q acetyl mimic, the localisation_or_trafficking is reported as “no change”.
